The source of these data is patent publication US20250026782A1, “ACTIVATING APPENDAGES TO INDUCE POLYPHARMACOLOGY IN PEPTIDE HORMONE ANALOGUES, INCLUDING DUAL GLP-1R / GIP AGONISM” (Wisconsin Alumni Research Foundation, priority 2023, published 2025).

In data set [1] the target is GLP-1 receptor (Homo sapiens, UniProt P43220). Nature of the data set: cAMP production assay, activation of GLP-1R (GloSensor HEK293 cells). The format is cell-based. The settings on record: result in words, EC50 values only in figures.
Chain of GLP-1 receptor (P43220 24-463): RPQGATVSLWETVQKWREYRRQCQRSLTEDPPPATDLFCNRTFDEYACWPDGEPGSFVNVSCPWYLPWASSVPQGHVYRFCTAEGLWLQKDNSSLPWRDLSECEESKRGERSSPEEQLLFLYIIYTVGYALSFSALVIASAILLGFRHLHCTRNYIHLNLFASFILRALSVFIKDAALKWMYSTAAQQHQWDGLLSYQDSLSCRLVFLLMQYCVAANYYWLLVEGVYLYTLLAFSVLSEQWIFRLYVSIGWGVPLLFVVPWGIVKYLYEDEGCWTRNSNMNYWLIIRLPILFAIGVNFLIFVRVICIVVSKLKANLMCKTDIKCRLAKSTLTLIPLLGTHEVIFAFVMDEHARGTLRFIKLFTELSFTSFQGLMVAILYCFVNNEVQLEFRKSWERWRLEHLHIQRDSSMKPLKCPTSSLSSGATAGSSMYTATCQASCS
Description: Cell medium was 0.22 μm-filtered DMEM supplemented with 10% (v/v) FBS (referred to as GS media) and penicillin/streptomycin.
The conditions of data set [2]: degraded by peptidases; cited from earlier work.
Data set [3] has as its target T1, GIP receptor (Homo sapiens, UniProt P48546).
T1 sequence (P48546 22-466): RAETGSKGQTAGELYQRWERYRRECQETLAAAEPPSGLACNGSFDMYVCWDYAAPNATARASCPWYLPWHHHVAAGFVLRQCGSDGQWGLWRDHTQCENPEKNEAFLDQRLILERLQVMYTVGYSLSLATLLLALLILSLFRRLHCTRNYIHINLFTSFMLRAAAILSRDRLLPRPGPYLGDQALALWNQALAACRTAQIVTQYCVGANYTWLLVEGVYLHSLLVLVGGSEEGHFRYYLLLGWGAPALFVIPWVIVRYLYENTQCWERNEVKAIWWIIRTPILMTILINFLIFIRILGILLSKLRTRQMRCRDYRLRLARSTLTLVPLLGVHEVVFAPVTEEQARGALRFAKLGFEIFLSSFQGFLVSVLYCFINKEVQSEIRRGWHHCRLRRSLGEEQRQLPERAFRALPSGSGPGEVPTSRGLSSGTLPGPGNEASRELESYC
Description: cAMP production assay, activation of GIPR (HEK 293 GS cells stably expressing GIPR). Conditions: result in words, EC50 values only in figures. (Changes in cAMP serve as a functional read-out for many G protein-coupled receptors.)

“Also recorded” adds a separate entry of the source. No end group written: not given here. B4 T2‑OMe = not defined here

Consider “GIP (1-30): amidated truncated form of glucose-dependent insulinotropic polypeptide, YAEGTFISDY SIAMDKIHQQ DEVNWLLAQK-NH2”, for which, in data set [1], the “activation of the GLP-1 receptor (agonist activity / potency)” value is on record as “does not activate the GLP-1 receptor”.

“GLP-1: glucagon-like peptide-1, native hormone, HAEGTFTSDVSSYLEGQAAKEFIAWLVKGRG”: the half-life in vivo in data set [2] is < 2 min. In addition, the “activation of the GIP receptor (agonist activity / potency)” value in data set [3] was “does not activate the GIP receptor; also recorded: no effect on the GIP receptor; also recorded: does not activate the GIPR”; in data set [3] (listed as GLP-1*), “acts as an agonist; also recorded: agonists of both GLP-1 receptor and GIP receptor; also recorded: greater activity than other tested appendages”.

As for tirzepatide, the results for the “activation of the GLP-1 receptor (agonist activity / potency)” value in data set [1] and in data set [1] (listed as TZP) were “activation of the GLP-1 receptor” and “dual GLP-1R/GIPR”, respectively. Also, the results for the “activation of the GIP receptor (agonist activity / potency)” value in data set [3] and in data set [3] (listed as TZP) were “activation of the GIP receptor” and “dual GLP-1R/GIPR”, respectively.

“GLP-1 16 B4 T2-OMe: GLP-1 with position 16 B4 T2 side chain, OMe variant of bisphenol (HAEGTFTSDK(B4 T2‑OMe)SSYLEGQAAKEFIAWLVKGRG; reading uncertain)”: in data set [3], the “activation of the GIP receptor (agonist activity / potency)” value is listed as “greater activity than other tested appendages”.
